According to US20240279331A1 (University of California, published 2024):
Residue numbers refer to the chain shown, from its start. Blank lines part the entries; values can stand above or below the binder they belong to.

Key:
[1] = biological target: T1, NCR3 extracellular domain TEV-cleavable Fc-fusion, biotinylated (human, UniProt O14931 19-135, biotinylated (site not stated)); experiment: Fab-phage selection and Fab-phage ELISA on biotinylated ECD Fc-fusion (antigen column of Table S1)
T1 construct: extracellular domain; Antigen of the phage selections and Fab-phage ELISAs; not shown: TEV cleavage site and Fc domain
T1 sequence (looked up): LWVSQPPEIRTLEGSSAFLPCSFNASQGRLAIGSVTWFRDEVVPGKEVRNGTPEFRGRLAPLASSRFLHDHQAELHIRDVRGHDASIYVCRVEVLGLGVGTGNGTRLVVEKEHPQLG
Experimental: (§1) To generate antibodies against these antigens, we expressed the extracellular domains (ECDs) of these proteins as TEV-cleavable Fc-fusions and performed Fab-phage display selections to enrich for high affinity antibody binders (FIG. S1), as previously described [Hornsby, M. et al., Mol Cell Proteomics. 14(10), 2833-2847 (2015)]. After each selection, Fab-phage ELISAs were performed to determine the relative affinity and selectivity of these binders for their antigen targets (FIG. S2).
(§2) TEV-cleavable Fc-fusion proteins were expressed and biotinylated in Expi293F cells using the standard expression protocol. Media were harvested after 4 days of expression and protein was purified by protein A affinity chromatography. Phage selections were performed according to previously established protocols1 with the Fab-phage Library E2. Non-specific binders were depleted from the library by incubating the phage pool with Fc-domain immobilized on streptavidin beads. Fab phage were selected using biotinylated Fc-fusions that were captured on streptavidin-coated magnetic beads, and were released through TEV elution. Each selection consists of four rounds. With each round, decreasing amounts of Fc-fusions (1 μM, 100 nM, 10 nM, and […]) were used. ELISAs were performed for 96 individual Fab-phage clones from the third or fourth rounds of selection to evaluate for affinity and selectivity.
(§3) ELISAs were performed as previously described1. In brief, Maxisorp plates were coated with 10 μg/mL of Neutravidin overnight at 4° C. Biotinylated target antigen (20 nM) was captured on the Neutravidin coated plates for 30 min, and then exposed to a 1:5 dilution of phage supernatants for 30 min. Bound phage were detected via a horseradish-peroxidase-conjugated anti-phage monoclonal antibody (GE Lifesciences).

[2] = biological target: T2, NCR3 extracellular domain fused to a generic transmembrane domain, on tetracycline-inducible FlpIn cells (human, UniProt O14931 19-135); experiment: flow cytometry, Fab on tetracycline-inducible cells over-expressing the ECD (FIG. S5)
T2 construct: extracellular domain; HEK293 FlpIn cells, expression on tetracycline addition; also called NCR3 over expression cell line; not shown: transmembrane domain of platelet-derived growth factor (so in the source) with a HA tag
T2 sequence (looked up): T1 sequence (looked up)
Experimental: (§4) To investigate the specificity of both activating and non-functional antibodies for their receptor targets, we developed a tetracycline-inducible cell line for each protein target—CD16, NCR1, NCR3, CD244, TNFRSF9, and TNFSF4. The ECDs of these proteins were fused to a generic transmembrane domain and were expressed upon tetracycline addition.
(§5) Titrations were performed on primary human NK cells or tetracycline induced overexpression cell lines as indicated. When tetracycline induced overexpression cell lines were used, cells were dosed with 10 μg/mL tetracycline for 2 days prior to staining. The starting concentration of each Fab or bispecific antibody was 1 μM, and serial 1:5 dilutions were performed. Antibodies were incubated with cells for 1 hr at 4° C., washed 2 times in 3% BSA in PBS pH 7.4, and stained for 30 min with an Alexafluor-647 conjugated goat anti-human IgG F(ab′)2 fragment (Jackson ImmunoResearch Laboratories) at a 1:50 dilution. After an additional 3 washes, cells were fixed and fluorescence was quantified using a CytoFLEX (Beckman Coulter). All flow cytometry data were analyzed using FlowJo software.

[3] = biological target: T3, NCR3 as expressed on NK cells (human, UniProt O14931 19-201); experiment: flow cytometry, Fab titration on peripheral blood NK cells (FIG. S6)
T3 construct: whole, on cells; Primary human peripheral blood NK cells; NK92MI cells in the bispecific cytotoxicity assay; also called peripheral blood NK cells; NCR3+ NK92MI cells
T3 sequence (looked up): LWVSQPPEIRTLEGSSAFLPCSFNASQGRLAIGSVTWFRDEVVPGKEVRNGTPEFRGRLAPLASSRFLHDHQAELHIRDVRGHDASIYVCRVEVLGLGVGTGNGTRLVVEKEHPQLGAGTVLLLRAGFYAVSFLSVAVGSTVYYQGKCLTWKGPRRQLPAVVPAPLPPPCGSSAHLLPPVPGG
Experimental: (§6) To evaluate the affinity of the selected antibodies for NK cells, we titrated the nine Fab clones on peripheral blood NK cells.
as §5

[4] = biological target: T4, CD244 extracellular domain fused to a generic transmembrane domain, on tetracycline-inducible FlpIn cells (UniProt Q9BZW8 22-229); experiment: flow cytometry, Fab on tetracycline-inducible cell lines over-expressing each ECD (FIG. S5)
T4 construct: extracellular domain; not shown: transmembrane domain of platelet-derived growth factor (so in the source) with a HA tag
T4 sequence (looked up): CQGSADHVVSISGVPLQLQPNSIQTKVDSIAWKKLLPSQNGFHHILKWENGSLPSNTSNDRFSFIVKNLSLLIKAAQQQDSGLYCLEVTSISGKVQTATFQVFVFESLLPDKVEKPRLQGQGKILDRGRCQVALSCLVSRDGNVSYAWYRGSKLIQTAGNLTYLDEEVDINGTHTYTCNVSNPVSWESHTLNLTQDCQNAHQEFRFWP
Experimental: as §4, §5

[5] = biological target: T5, CD16 extracellular domain fused to a generic transmembrane domain, on tetracycline-inducible FlpIn cells (human, UniProt P08637 17-208); experiment: as above
T5 construct: extracellular domain; HEK293 FlpIn cells, expression on tetracycline addition; also called CD16 over expression cell line; CD16A; not shown: transmembrane domain of platelet-derived growth factor (so in the source) with a HA tag
Experimental: as §4, §5

[6] = biological target: T6, TNFRSF9 extracellular domain fused to a generic transmembrane domain, on tetracycline-inducible FlpIn cells (UniProt Q07011 24-186); experiment: as above
T6 construct: extracellular domain; also called 4-1BB; not shown: transmembrane domain of platelet-derived growth factor (so in the source) with a HA tag
Experimental: as §4, §5

[7] = biological target: T7, NCR1 extracellular domain fused to a generic transmembrane domain, on tetracycline-inducible FlpIn cells (human, UniProt O76036 22-258); experiment: as above
T7 construct: extracellular domain; HEK293 FlpIn cells, expression on tetracycline addition; also called NCR1 over expression cell line; not shown: transmembrane domain of platelet-derived growth factor (so in the source) with a HA tag
Experimental: as §4, §5

[8] = biological target: T8, TNFSF4 extracellular domain fused to a generic transmembrane domain, on tetracycline-inducible FlpIn cells (UniProt P23510 51-183); experiment: as above
T8 construct: extracellular domain; also called OX40L; not shown: transmembrane domain of platelet-derived growth factor (so in the source) with a HA tag
T8 sequence (looked up): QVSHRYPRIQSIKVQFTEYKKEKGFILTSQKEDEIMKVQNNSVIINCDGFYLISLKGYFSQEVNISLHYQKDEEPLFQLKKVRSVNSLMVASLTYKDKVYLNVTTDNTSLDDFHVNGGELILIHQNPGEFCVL
Experimental: as §4, §5

[9] = biological target: T9, CD16 extracellular domain TEV-cleavable Fc-fusion, biotinylated (human, UniProt P08637 17-208, biotinylated (site not stated)); experiment: Fab-phage selection and Fab-phage ELISA on biotinylated ECD Fc-fusion (antigen column of Table S1)
T9 construct: extracellular domain; Antigen of the phage selections and Fab-phage ELISAs; also called CD16A; not shown: TEV cleavage site and Fc domain
Experimental: as §1, §2, §3

[10] = biological target: T5, CD16 extracellular domain fused to a …; experiment: flow cytometry, Fab on tetracycline-inducible cells over-expressing the ECD (FIG. S5)
Experimental: as §4, §5

[11] = biological target: T10, CD16 as expressed on NK cells (human, UniProt P08637 17-254); experiment: flow cytometry, Fab titration on peripheral blood NK cells (FIG. S6)
T10 construct: whole, on cells; Primary human peripheral blood NK cells; PBMCs in the bispecific cytotoxicity assay; also called peripheral blood NK cells; PBMCs
Experimental: as §6, §5

[12] = biological target: T2, NCR3 extracellular domain fused to a …; experiment: flow cytometry, Fab on tetracycline-inducible cell lines over-expressing each ECD (FIG. S5)
Experimental: as §4, §5

[13] = biological target: T11, NCR1 extracellular domain TEV-cleavable Fc-fusion, biotinylated (human, UniProt O76036 22-258, biotinylated (site not stated)); experiment: Fab-phage selection and Fab-phage ELISA on biotinylated ECD Fc-fusion (antigen column of Table S1)
T11 construct: extracellular domain; Antigen of the phage selections and Fab-phage ELISAs; not shown: TEV cleavage site and Fc domain
Experimental: as §1, §2, §3

[14] = biological target: T7, NCR1 extracellular domain fused to a …; experiment: flow cytometry, Fab on tetracycline-inducible cells over-expressing the ECD (FIG. S5)
Experimental: as §4, §5

[15] = biological target: T12, NCR1 as expressed on NK cells (human, UniProt O76036 22-304); experiment: flow cytometry, Fab titration on peripheral blood NK cells (FIG. S6)
T12 construct: whole, on cells; Primary human peripheral blood NK cells; NKL cells stably transduced with NCR1 in the bispecific cytotoxicity assay; also called peripheral blood NK cells; NCR1+ NKL cells
Experimental: as §6, §5

T7 sequence (O76036 22-258): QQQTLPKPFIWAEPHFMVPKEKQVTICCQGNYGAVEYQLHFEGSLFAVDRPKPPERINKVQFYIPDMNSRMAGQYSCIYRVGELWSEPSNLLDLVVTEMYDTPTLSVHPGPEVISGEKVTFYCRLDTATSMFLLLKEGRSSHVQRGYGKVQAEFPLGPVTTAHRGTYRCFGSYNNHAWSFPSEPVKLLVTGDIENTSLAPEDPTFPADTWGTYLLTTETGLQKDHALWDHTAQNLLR
T5 sequence (P08637 17-208): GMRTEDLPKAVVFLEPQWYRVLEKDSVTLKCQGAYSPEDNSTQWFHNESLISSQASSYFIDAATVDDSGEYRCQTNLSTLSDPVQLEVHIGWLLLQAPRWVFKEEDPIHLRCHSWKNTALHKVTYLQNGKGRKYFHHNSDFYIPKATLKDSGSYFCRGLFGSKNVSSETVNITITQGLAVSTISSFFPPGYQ
T11 sequence (O76036 22-258): as the sequence (O76036 22-258) above
T9 sequence (P08637 17-208): as the sequence (P08637 17-208) above
T10 sequence (P08637 17-254): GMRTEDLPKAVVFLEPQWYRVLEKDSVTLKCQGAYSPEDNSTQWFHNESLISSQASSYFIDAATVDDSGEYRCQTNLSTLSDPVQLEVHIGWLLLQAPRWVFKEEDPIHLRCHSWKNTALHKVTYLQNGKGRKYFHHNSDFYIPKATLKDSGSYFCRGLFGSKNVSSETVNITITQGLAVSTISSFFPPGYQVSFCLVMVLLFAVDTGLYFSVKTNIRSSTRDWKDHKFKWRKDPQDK
T12 sequence (O76036 22-304): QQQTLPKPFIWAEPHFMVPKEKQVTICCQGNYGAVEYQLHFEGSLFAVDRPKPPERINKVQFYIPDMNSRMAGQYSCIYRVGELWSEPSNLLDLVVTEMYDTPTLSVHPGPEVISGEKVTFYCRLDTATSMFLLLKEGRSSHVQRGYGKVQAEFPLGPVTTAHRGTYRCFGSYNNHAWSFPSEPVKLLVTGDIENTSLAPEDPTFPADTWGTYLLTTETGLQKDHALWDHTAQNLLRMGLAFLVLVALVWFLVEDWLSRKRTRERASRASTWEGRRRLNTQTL

B1: NCR3.12 Fab (Fab)
heavy: EVQLVESGGGLVQPGGSLRLSCAASGFNISSSSIHWVRQAPGKGLEWVAYISSSSGYTSYADSVKGRFTISADTSKNTAYLQMNSLRAEDTAVYYCARYSYFYGGYFYWTSWGAFDYWGQGTLVTVSSASTKGPSVFPLAPSSKSTSGGTAALGCLVKDYFPEPVTVSWNSGALTSGVHTFPAVLQSSGLYSLSSVVTVPSSSLGTQTYICNVNHKPSNTKVDKKVEPKSCDKTHT
light: DIQMTQSPSSLSASVGDRVTITCRASQSVSSAVAWYQQKPGKAPKLLIYSASSLYSGVPSRFSGSRSGTDFTLTISSLQPEDFATYYCQQSSYWPFTFGQGTKVEIKRTVAAPSVFIFPPSDSQLKSGTASVVCLLNNFYPREAKVQWKVDNALQSGNSQESVTEQDSKDSTYSLSSTLTLSKADYEKHKVYACEVTHQGLSSPVTKSFNRGEC
notes: also called anti-NCR3 Fab #72
binding result [1]: binds
binding result [2]: binds
binding result [3]: binds
binding result [4]: no binding
binding result [5]: no binding
binding result [6]: no binding
binding result [7]: no binding
binding result [8]: no binding

B2: CD16.03 Fab (Fab)
heavy: EVQLVESGGGLVQPGGSLRLSCAASGFNFSSYSIHWVRQAPGKGLEWVASIYSSSGSTSYADSVKGRFTISADTSKNTAYLQMNSLRAEDTAVYYCARWSYDQYYDQHGYYFYYWGFDYWGQGTLVTVSSASTKGPSVFPLAPSSKSTSGGTAALGCLVKDYFPEPVTVSWNSGALTSGVHTFPAVLQSSGLYSLSSVVTVPSSSLGTQTYICNVNHKPSNTKVDKKVEPKSCDKTHT
light: B1 light with Y93A, W94E, P95L, F96I
notes: also called anti-CD16 Fab #3
binding result [9]: binds
binding result [10]: binds
binding result [11]: binds
binding result [4]: no binding
binding result [6]: no binding
binding result [7]: no binding
binding result [8]: no binding
binding result [12]: no binding

The next lines start with the values.

binding result [1]: binds
binding result [2]: binds
binding result [3]: binds
binding result [4]: no binding
binding result [5]: no binding
binding result [6]: no binding
binding result [7]: no binding
binding result [8]: no binding
B3: NCR3.19 Fab (Fab)
heavy: EVQLVESGGGLVQPGGSLRLSCAASGFNVYSYSIHWVRQAPGKGLEWVASIYSYYGSTSYADSVKGRFTISADTSKNTAYLQMNSLRAEDTAVYYCARWYQYYYIGTAAMDYWGQGTLVTVSSASTKGPSVFPLAPSSKSTSGGTAALGCLVKDYFPEPVTVSWNSGALTSGVHTFPAVLQSSGLYSLSSVVTVPSSSLGTQTYICNVNHKPSNTKVDKKVEPKSCDKTHT
light: B1 light with S91Q, S92W, W94P, P95L, F96I
notes: also called anti-NCR3 Fab #79

binding result [13]: binds
binding result [14]: binds
binding result [15]: binds
binding result [4]: no binding
binding result [5]: no binding
binding result [6]: no binding
binding result [8]: no binding
binding result [12]: no binding
B4: NCR1.11 Fab (Fab)
heavy: EVQLVESGGGLVQPGGSLRLSCAASGFNVYYSYIHWVRQAPGKGLEWVASISSYYGSTYYADSVKGRFTISADTSKNTAYLQMNSLRAEDTAVYYCARSRYLQDYWSSWWVSWYGLDYWGQGTLVTVSSASTKGPSVFPLAPSSKSTSGGTAALGCLVKDYFPEPVTVSWNSGALTSGVHTFPAVLQSSGLYSLSSVVTVPSSSLGTQTYICNVNHKPSNTKVDKKVEPKSCDKTHT
light: B1 light with Y93S, W94S, P95L, F96I
notes: also called anti-NCR1 Fab #27
